Laboratory results: article PMC10185304, “Structure of Anabaena flos-aquae gas vesicles revealed by cryo-ET” (Structure (London, England : 1993), 2023)

B1: GvpA from Anabaena flos-aquae (Ana) gas vesicles (natural protein, UniProt P10397 1-71, looked up)
chain: MAVEKTNSSSSLAEVIDRILDKGIVIDAWVRVSLVGIELLAIEARIVIASVETYLKYAEAVGLTQSAAVPA
notes: Gas vesicle structural protein GvpA (~8 kDa), Anabaena flos-aquae (Dolichospermum flos-aquae strain 1403/13F); polymerised into the helical filament that forms the gas vesicle shell; Native protein as it stands in purified gas vesicles; also called Ana GvpA; major structural protein; source: endogenous, in gas vesicles isolated from Anabaena flos-aquae by buoyancy purification
B2: GvpC from Anabaena flos-aquae (Ana) gas vesicles (natural protein, UniProt P09413 1-193, looked up)
chain: MISLMAKIRQEHQSIAEKVAELSLETREFLSVTTAKRQEQAEKQAQELQAFYKDLQETSQQFLSETAQARIAQAEKQAQELLAFHKELQETSQQFLSATAQARIAQAEKQAQELLAFYQEVRETSQQFLSATAQARIAQAEKQAQELLAFHKELQETSQQFLSATADARTAQAKEQKESLLKFRQDLFVSIFG
notes: Gas vesicle protein GvpC, Anabaena flos-aquae (Dolichospermum flos-aquae strain 1403/13F); five 33-residue repeats plus short N and C termini; in PDB 8GBS it is modelled only as a poly-Ala chain of one repeat's length; removed with 6 M urea to give stripped (AnaS) vesicles; also called Ana GvpC; accessory protein GvpC; source: endogenous, in native gas vesicles isolated from Anabaena flos-aquae …

How the values were obtained:
Assay in all cases: cryo-EM structure; cryo-electron tomography with subtomogram averaging of the shell of native Ana gas vesicles (7.7 Å) and of urea-stripped AnaS gas vesicles (7.3 Å), 10 mM HEPES pH 7.5; GvpA homology model (from PDB 7R1C) and a poly-Ala helix for GvpC fitted as rigid bodies
[1] = target: B2; settings: both partners purified
[2] = target: the molecule itself
[3] = target: B1; settings: both partners purified

Binder | binding result [1] | binding result [2] | stoichiometry N [3]
B1 | binds | binds | 
B2 |  |  | ~0.05 GvpC per GvpA
